Experimental data reported in patent US5723307A, “Fluorogenic substrates for assay of angiotensin converting enzyme” (Development Center for Biotechnology, priority 1995, dated 1998).
Values belong to the molecule of their own block, whether it stands above or below them. Starred links: 1 amine or outer side, 2 acyl side, 3 side chain; linkers in the order of their positions; H or OH if unused. Non-standard residues stand in square brackets, D forms with d. Residues, ends and D or L forms follow the SMILES beside them. *: point of attachment. Phe(4-NO2) = N[C@@H](Cc1ccc([N+](=O)[O-])cc1)C(=O)O; EDANS = O=S(=O)(O)c1cccc2c(NCCN*)cccc12; Suc = O=C(CCC(=O)[*:2])[*:1]; 2Abz = Nc1ccccc1C(=O)O

How the values were obtained:
[1] = solubility in aqueous buffer; type: physicochemical
ACE = conditions: from literature, cited from earlier work; for Km: Ref. [16]-[20]
[2] = substrate: CC(C)C[C@H](NC(=O)[C@H](Cc1c[nH]c2ccccc12)NC(=O)[C@H](Cc1ccccc1)NC(=O)CCC(=O)NCCNc1cccc2c(S(=O)(=O)O)cccc12)C(=O)O; test: continuous spectrofluorometric assay of hydrolysis of fluorogenic substrates by ACE (kinetic parameters); type: biochemical, rabbit; conditions: other: 0.05M Hepes buffer pH 8.2, 0.2M NaCl, 1M Na2SO4, Lineweaver-Burk, ex 286 nm, em 360 nm, 37.0 °C
Method: (§1) Fluorescence data were recorded on a HITACHI Model F2000 fluorescence spectrophotometer (Tokyo, Japan) set at wavelengths of 286 nm (excitation)and 360 nm (emission). The rates of enzymatic hydrolysis of the fluorogenic compounds ES-FWF, ES-FWG, ES-FWH, ES-FWK, ES-FWL and ES-FHW were monitored fluorospectrophotometrically as follows: A solution of ACE was prepared at 1.3×10^-2 units/ml (concentration of enzyme was estimated by using the Bio-Rad protein assay kit with bovine serum albumin as a standard). […] Activity was assayed with hippuryl-L-histidyl-L-leucine as a substrate. One unit of enzyme activity is the amount required to catalyze the formation of 1.0 μmol of hippuric acid per minute (in 50 mM Hepes, pH 8.3, and 0.3M NaCl at 37° C.). For fluorescence measurement, 20 μl of enzyme solution was added to 0.5 ml substrate solution (2×10^-6 -6.5×10^-5 M) in 0.05M Hepes buffer, pH 8.2, containing 0.2M NaCl and 1M Na2 SO4, placed in an optical cell. […] The increase in fluorescence (emission at 360 nm, excitation at 286 nm) with time, in the presence of the enzyme, was recorded continuously. Since the product (and perhaps the substrate as well) is subject to photodecomposition, the slit width of the excitation monochromator must not be too large. Alternatively, the reaction can be monitored automatically by pulse illumination with a time interval of 150, sec, as shown in FIG. 1.
(§2) Dependence of the rate of hydrolysis on substrate concentration was established by initial rate measurements (within the first 10% of hydrolysis). The slope of the line was translated into molar concentrations of the released dipeptides using a calibration curve constructed by fluorescence measurements of solutions containing authentic dipeptide under identical conditions. Km values were calculated by the method of Lineweaver-Burk plots. Five points with approximately equidistance on the 1/[S] abscissa were obtained from the average of two independent measurements. Kinetic parameters for other substrates were also obtained by similar procedures.
(§3) Kinetic parameters of ES-FWF, ES-FWG, ES-FWH, ES-FWK, ES-FWL and ES-FHW for ACE were obtained by continuous spectrofluorometric assay, and the results are listed in Table I. In order to compare the characteristics of the ES-peptides with those of previously reported fluorogenic substrates, the kinetic parameters from literatures were collected for comparison.

[3] = substrate: NCCCC[C@H](NC(=O)[C@H](Cc1c[nH]c2ccccc12)NC(=O)[C@H](Cc1ccccc1)NC(=O)CCC(=O)NCCNc1cccc2c(S(=O)(=O)O)cccc12)C(=O)O; test: as above; type: biochemical, rabbit; conditions: other: 0.05M Hepes buffer pH 8.2, 0.2M NaCl, 1M Na2SO4, Lineweaver-Burk, ex 286 nm, em 360 nm, 37.0 °C
Method: as §1, §2, §3

[4] = substrate: O=C(CCC(=O)N[C@@H](Cc1ccccc1)C(=O)N[C@@H](Cc1c[nH]c2ccccc12)C(=O)N[C@@H](Cc1c[nH]cn1)C(=O)O)NCCNc1cccc2c(S(=O)(=O)O)cccc12; test: as above; type: biochemical, rabbit; conditions: other: 0.05M Hepes buffer pH 8.2, 0.2M NaCl, 1M Na2SO4, Lineweaver-Burk, ex 286 nm, em 360 nm, 37.0 °C
Method: as §1, §2, §3

[5] = substrate: O=C(CCC(=O)N[C@@H](Cc1ccccc1)C(=O)N[C@@H](Cc1c[nH]c2ccccc12)C(=O)N[C@@H](Cc1ccccc1)C(=O)O)NCCNc1cccc2c(S(=O)(=O)O)cccc12; test: as above; type: biochemical, rabbit; conditions: other: 0.05M Hepes buffer pH 8.2, 0.2M NaCl, 1M Na2SO4, Lineweaver-Burk, ex 286 nm, em 360 nm, 37.0 °C
Method: as §1, §2, §3

[6] = substrate: O=C(CCC(=O)N[C@@H](Cc1ccccc1)C(=O)N[C@@H](Cc1c[nH]cn1)C(=O)N[C@@H](Cc1c[nH]c2ccccc12)C(=O)O)NCCNc1cccc2c(S(=O)(=O)O)cccc12; test: as above; type: biochemical, rabbit; conditions: other: 0.05M Hepes buffer pH 8.2, 0.2M NaCl, 1M Na2SO4, Lineweaver-Burk, ex 286 nm, em 360 nm, 37.0 °C
Method: as §1, §2, §3

[7] = substrate: O=C(O)CNC(=O)[C@H](Cc1c[nH]c2ccccc12)NC(=O)[C@H](Cc1ccccc1)NC(=O)CCC(=O)NCCNc1cccc2c(S(=O)(=O)O)cccc12; test: as above; type: biochemical, rabbit; conditions: other: 0.05M Hepes buffer pH 8.2, 0.2M NaCl, 1M Na2SO4, Lineweaver-Burk, ex 286 nm, em 360 nm, 37.0 °C
Method: as §1, §2, §3

Molecule: Nc1ccccc1C(=O)NCC(=O)N[C@@H](Cc1ccc([N+](=O)[O-])cc1)C(=O)N1CCC[C@H]1C(=O)O [Abz-GF(NO2)P, o-aminobenzoyl-glycyl-p-nitro-L-phenylalanyl-L-proline] (H-[2Abz]G[Phe(4-NO2)]P-OH)
Km (ACE): 190 µM
kcat (ACE; Ref. [17]-[20]): 1.5 s⁻¹
kcat/Km (ACE; Ref. [17]-[20]): 7.7 × 10^3 M^-1 S^-1

Molecule: O=C(O)CNC(=O)[C@H](Cc1c[nH]c2ccccc12)NC(=O)CNC(=O)OCc1ccc([N+](=O)[O-])cc1 [Z(NO2)-GWG, p-nitrobenzyloxycarbonylglycyl-L-tryptophyl-glycine]
Km (ACE): 900 µM

Molecule: O=C(CCC(=O)N[C@@H](Cc1ccccc1)C(=O)N[C@@H](Cc1c[nH]c2ccccc12)C(=O)N[C@@H](Cc1ccccc1)C(=O)O)NCCNc1cccc2c(S(=O)(=O)O)cccc12 [ES-FWF] ({EDANS-Suc}-Phe-Trp-Phe-OH)
solubility [1]: 7000 to 40000 µg/mL

B1: ACE (from rabbit lung, Sigma Chemical Co.) (Oryctolagus cuniculus) (protein)
chain: TLDPGLLPGDFAADEAGARLFASSYNSSAEQVLFRSTAASWAHDTNITAENARRQEEEALLSQEFAEAWGKKAKELYDPVWQNFTDPELRRIIGAVRTLGPANLPLAKRQQYNSLLSNMSQIYSTGKVCFPNKTASCWSLDPDLNNILASSRSYAMLLFAWEGWHNAVGIPLKPLYQEFTALSNEAYRQDGFSDTGAYWRSWYDSPTFEEDLERIYHQLEPLYLNLHAYVRRVLHRRYGDRYINLRGPIPAHLLGNMWAQSWESIYDMVVPFPDKPNLDVTSTMVQKGWNATHMFRVAEEFFTSLGLLPMPPEFWAESMLEKPEDGREVVCHASAWDFYNRKDFRIKQCTQVTMDQLSTVHHEMGHVQYYLQYKDQPVSLRRANPGFHEAIGDVLALSVSTPAHLHKIGLLDHVTNDTESDINYLLKMALEKIAFLPFGYLVDQWRWGVFSGRTPSSRYNFDWWYLRTKYQGICPPVVRNETHFDAGAKFHIPSVTPYIRYFVSFVLQFQFHQALCMEAGHQGPLHQCDIYQSTRAGAKLRAVLQAGCSRPWQEVLKDMVASDALDAQPLLDYFQPVTQWLQEQNERNGEVLGWPEYQWRPPLPNNYPEGIDLVTDEAEASRFVEEYDRSFQAVWNEYAEANWNYNTNITTEASKILLQKNMQIANHTLTYGNWARRFDVSNFQNATSKRIIKKVQDLQRAVLPVKELEEYNQILLDMETIYSVANVCRVDGSCLQLEPDLTNLMATSRKYDELLWVWTSWRDKVGRAILPYFPKYVEFTNKAARLNGYVDAGDSWRSMYETPTLEQDLERLFQELQPLYLNLHAYVGRALHRHYGAQHINLEGPIPAHLLGNMWAQTWSNIYDLVAPFPSASTMDATEAMIKQGWTPRRMFEEADKFFISLGLLPVPPEFWNKSMLEKPTDGREVVCHASAWDFYNGKDFRIKQCTTVNMEDLVVVHHEMGHIQYFMQYKDLPVALREGANPGFHEAIGDVLALSVSTPKHLHSINLLSSEGGGYEHDINFLMKMALDKIAFIPFSYLVDEWRWRVFDGSITKENYNQEWWSLRLKYQGLCPPAPRSQGDFDPGAKFHIPSSVPYIRYFVSFIIQFQFHEALCKAAGHTGPLHTCDIYQSKEAGKRLADAMKLGYSKPWPEAMKVITGQPNMSASAMMNYFKPLMDWLLTENGRHGEKLGWPQYTWTPNSARSEGSLPDSGRVNFLGMNLDAQQARVGQWVLLFLGVALLLASLGLTQRLFSIRYQSLRQPHHGPQFGSEVELRHS
notes: ACE (from rabbit lung, Sigma Chemical Co.); purchased Sigma Chemical Co; host or cells: rabbit lung (tissue)
Km [2]: 2.7 µM
kcat [2]: 0.9 s⁻¹
kcat/Km [2]: 3.2 × 10^5 M^-1 S^-1
Km [3]: 24 µM
kcat [3]: 3.8 s⁻¹
kcat/Km [3]: 1.6 × 10^5 M^-1 S^-1
Km [4]: 4.9 µM
kcat [4]: 0.8 s⁻¹
kcat/Km [4]: 1.7 × 10^5 M^-1 S^-1
Km [5]: 4.5 µM
kcat [5]: 2.1 s⁻¹
kcat/Km [5]: 4.6 × 10^5 M^-1 S^-1
Km [6]: 15 µM
kcat [6]: 2.0 s⁻¹
kcat/Km [6]: 1.3 × 10^5 M^-1 S^-1
Km [7]: 23 µM
kcat [7]: 2.0 s⁻¹
kcat/Km [7]: 8.9 × 10^4 M^-1 S^-1

The remaining lines, values ahead:

solubility [1]: 7000 to 40000 µg/mL
Molecule: NCCCC[C@H](NC(=O)[C@H](Cc1c[nH]c2ccccc12)NC(=O)[C@H](Cc1ccccc1)NC(=O)CCC(=O)NCCNc1cccc2c(S(=O)(=O)O)cccc12)C(=O)O [ES-FWK] ({EDANS-Suc}-Phe-Trp-Lys-OH)

solubility [1]: 7000 to 40000 µg/mL
Molecule: CC(C)C[C@H](NC(=O)[C@H](Cc1c[nH]c2ccccc12)NC(=O)[C@H](Cc1ccccc1)NC(=O)CCC(=O)NCCNc1cccc2c(S(=O)(=O)O)cccc12)C(=O)O [ES-FWL] ({EDANS-Suc}-Phe-Trp-Leu-OH)

solubility [1]: 7000 to 40000 µg/mL
Molecule: O=C(CCC(=O)N[C@@H](Cc1ccccc1)C(=O)N[C@@H](Cc1c[nH]cn1)C(=O)N[C@@H](Cc1c[nH]c2ccccc12)C(=O)O)NCCNc1cccc2c(S(=O)(=O)O)cccc12 [ES-FHW] ({EDANS-Suc}-Phe-His-Trp-OH)

solubility [1]: 7000 to 40000 µg/mL
Molecule: O=C(CCC(=O)N[C@@H](Cc1ccccc1)C(=O)N[C@@H](Cc1c[nH]c2ccccc12)C(=O)N[C@@H](Cc1c[nH]cn1)C(=O)O)NCCNc1cccc2c(S(=O)(=O)O)cccc12 [ES-FWH] ({EDANS-Suc}-Phe-Trp-His-OH)

solubility [1]: 7000 to 40000 µg/mL
Molecule: O=C(O)CNC(=O)[C@H](Cc1c[nH]c2ccccc12)NC(=O)[C@H](Cc1ccccc1)NC(=O)CCC(=O)NCCNc1cccc2c(S(=O)(=O)O)cccc12 [ES-FWG] ({EDANS-Suc}-Phe-Trp-Gly-OH)
